Data published in US20210196823A1, “Methods of Treating Metabolic Disease” (Pfizer Inc., priority 2018, published 2021).
Entries after “also recorded” stand apart in the source; their conditions may differ.

What was measured:
Type in all cases: cell-based
C2C12 Bre-Luc cells = test: BMP/SMAD signalling output in C2C12 Bre-Luc cells; conditions: 24 h
Method: As HAMP can be stimulated by a variety of ligands, we further tested the effect of ERFE in cells treated with various BMPs by measuring BMP/SMAD signalling output in C2C12 Bre-Luc cells. C2C12 Bre-Luc cells were treated with 2 nM of BMP in combination with a gradient of mouse ERFE concentrations (7.5 pM to 0.5 μM) for 24 h, and luminescence measured in each well. […] Analogous data confirmed suppression of HAMP and ID1 in cells treated with ERFE and BMP 2/6, BMP5, BMP6 and BMP7, FIG. 3F.
The inhibitory effect of EFE on selected BMPs was tested in-vitro in three different cell types, C2C12, Huh7 and HepG2. Huh7 (FIG. 3G, 3H) and HepG2 (FIGS. 3J, 3K) cells were treated with 2 nM of BMPs, alone or in combination with 10 μg/ml of mouse ERFE, in serum-free media, and analysed 6 h after treatment. Gene expression of HAMP and ID1 was measured by qRT-PCR. Results expressed as fold change relative to non-treated cells from 3 independent experiments. Statistical significance was analysed for each pair of BMP treatments. (*p<0.05, **p<0.01, ***p<0.001, ****p<0.0001, Student's t test). Additionally we tested the effect of ERFE in cells treated with various BMPs by measuring BMP/SMAD signalling output in C2C12 Bre-Luc cells (FIG. 3E). C2C12 Bre-Luc cells were treated with 2 nM of BMP in combination with a gradient of mouse ERFE concentrations (7.5 pM to 0.5 μM) for 24 h, and luminescence measured in each well.

[1] = tested on: SMAD1/5/8 phosphorylation in Huh7 cells; test: Western blot of SMAD1/5/8 phosphorylation in Huh7 cells
Method: (d) ERFE effects on BMP/SMAD signalling measured by SMAD 1/5/8 phosphorylation: To confirm the suppression of BMP/SMAD signalling, we analysed phosphorylation of SMAD1/5/8, required to transduce the signal leading to HAMP upregulation. Analysis was carried out by Western blot according to the following methodology: Cells were lysed at 4° C. using RIPA buffer (Thermo Scientific) containing protease/phosphatase inhibitor (Cell Signalling). Lysates were denatured at 95° C. and separated on a 10% SDS polyacrylamide gel (Bio-Rad), following the manufacturer's instruction. Protein sizes were estimated by using the Novex Sharp Pre-Stained Protein Ladder (life technologies). Protein was transferred to a nitrocellulose membrane, then blocked with milk/TBS for 1 h. Antibodies used were anti-P-SMAD 1/5 (S463s/465)/9(S465/467) (Cell signalling 13820S 1:500), anti-Smad1 (Cell Signalling 6944S 1:500), anti-β-actin-peroxidase (Sigma A3854 1:10 000), and Anti-rabbit IgG HRP conjugated (RnD systems HAP008 1:5000). […] In this case Huh7 cells were treated with mouse ERFE (10 μg/ml) or BMP6 and LDN, a small molecule inhibitor of BMPs, (100 nM), alone or in combination, for 30 min and pSMAD/SMAD ratios values were calculated by densitometry. Erythroferrone caused a decrease in SMAD phosphorylation relative to non-treated cells (FIG. 3D).

Huh7 cells [2] = test: Gene expression microarray of Huh7 cells treated with ERFE; conditions: Huh7, ERFE 10 μg/ml, 24 h
Method: (§1) (b) Gene expression microarray: Microarray analysis of Huh7 cells treated with mouse or human erythroferrone was carried out to test the activity of erythroferrone on the BMP/SMAD signalling pathway. Generally cell treatments were carried out according to the following protocol: Huh7 and HepG2 were cultured in Dulbecco's Modified Eagle's Medium—High Glucose (Sigma), supplemented with 10% Fetal Bovine Serum (Sigma), 1% Penicillin-Streptomycin (Sigma) and 1% L-Glutamine (Sigma), unless otherwise indicated. Cells were plated 24 h before treatments in 24-well (gene expression analysis) or 12-well (protein analysis) cell culture plates. At the time of treatment, cells were washed with PBS and fresh media was added.
For the purposes of gene expression microarray analysis RNA was isolated from the Huh7 cells using RNeasy Plus kit (Qiagen), this was followed by RNA quantification and quality assessment using a 2100 Bioanalyzer (Agilent). RNA was converted into biotin labelled cRNA for hybridization and gene expression analysed using the Human HT12v4.0 Expression Beadchip (Illumina) and the Illuminas's iScan Scanner. Raw data was normalised using the lumi package (Bioconductor) and compared using LIMMA (Bioconductor). Statistical significance was set at p<0.05.

Huh7 cells [3] = test: HAMP and ID1 qRT-PCR in Huh7 cells treated with BMPs with or without mouse ERFE; conditions: 2 nM BMP 2/6, BMP5, BMP6 or BMP7 + 10 μg/ml mouse ERFE, 6 h, serum-free media
Method: as §1
(c) RNA isolation, cDNA synthesis and qRT-PCR: Suppression of several BMP-target genes: HAMP, ID1, ID3, SMAD6 and SMAD7 was further confirmed by qRT-PCR. Cells were lysed and RNA was isolated using the RNeasy Plus kit (Qiagen), followed by RNA quantification and quality assessment using Nanodrop (Thermo Fisher). cDNA was synthesized using the High Capacity RNA-to-cDNA kit (Applied Biosystems). Gene expression was assessed using quantitative real-time PCR with Taqman Gene Expression Master Mix and inventoried Taqman Gene expression assays (Applied Biosystems) specific for the genes of interest according to the manufacturer's instructions. […]

B1: mouse ERFE: recombinant mouse erythroferrone (SEQ ID NO: 2); monoFC-muErfe is a monomeric FC murine ERFE fusion (protein, listed as Mus musculus)
chain: MASRRPVGARTLLACASLLAAMGLGVPESAEPVGTHARPQPPGAELPAPPANSPPEPIAHAHSVDPRDAWMLFVKQSDKGINSKRRSKARRLKLGLPGPPGPPGPQGPPGPFIPSEVLLKEFQLLLKGAVRQRESHLEHCTRDLPASGSPSRVPAAQELDSQDPGALLALLAATLAQGPRAPRVEAAFHCRLRRDVQVDRRALHELGIYYLPEVEGAFHRGPGLNLTSGQYTAPVAGFYALAATLHVALTEQPRKGPTRPRDRLRLLICIQSLCQHNASLETVMGLENSSELFISVNGVLYLQAGHYSVFLDNASGSSLTVRSGSHFSAILLGL
C2C12 Bre-Luc cells; 2 nM BMP2, mouse ERFE 7.5 pM to 0.5 μM
  BMP2 activity (luminescence): no effect
C2C12 Bre-Luc cells; 2 nM BMP4, mouse ERFE 7.5 pM to 0.5 μM
  BMP4 activity (luminescence): no effect
C2C12 Bre-Luc cells; 2 nM BMP5, mouse ERFE 7.5 pM to 0.5 μM
  activation of BMP signalling by BMP5 (luminescence): dose-dependent decrease
C2C12 Bre-Luc cells; 2 nM BMP6, mouse ERFE 7.5 pM to 0.5 μM
  activation of BMP signalling by BMP6 (luminescence): dose-dependent decrease
C2C12 Bre-Luc cells; 2 nM BMP7, mouse ERFE 7.5 pM to 0.5 μM
  activation of BMP signalling by BMP7 (luminescence): dose-dependent decrease
C2C12 Bre-Luc cells; 2 nM BMP9, mouse ERFE 7.5 pM to 0.5 μM
  BMP9 activity (luminescence): no effect
[1]; Huh7, mouse ERFE 10 μg/ml with BMP6, 30 min
  SMAD phosphorylation after BMP6 stimulation: blunted the increase
[1]; Huh7, mouse ERFE 10 μg/ml, 30 min, baseline
  SMAD 1/5/8 phosphorylation relative to non-treated cells: decrease
Huh7 cells [2]
  target genes of the JAK/STAT3 pathway: No changes
Huh7 cells [2]; 5 are BMP/SMAD targets ID1, ID2, ID3, SMAD6, HAMP
  number of suppressed genes: 12
Huh7 cells [3]
  HAMP and ID1 expression / BMP/SMAD signalling in BMP-treated Huh7 cells: suppresses; also recorded: suppression
